Results on two molecules are retold here after PMC10537722, “Proline Dehydrogenase and Pyrroline 5 Carboxylate Dehydrogenase from Mycobacterium tuberculosis: Evidence for Substrate Channeling” (Pathogens, 2023).

Data set [1] concerns the target T1, proline dehydrogenase (PruB) (Mycobacterium tuberculosis, UniProt O50444).
T1 construct: gene Rv1188
Briefly: […]; added FAD makes little difference to activity. The format is binding.

The next data set relates to O=C(O)[C@@H]1CCCN1. Briefly: purified protein. Conditions: FAD; pH 7.0; 25.0 °C.
Data set [2] concerns CC1=C(CCC(C)C)C(=O)c2ccccc2C1=O. Briefly: purified protein. Conditions: FAD; pH 7.0; 25.0 °C.
Data set [3] relates to CC(C)=CCC1=C(C)C(=O)c2ccccc2C1=O. Briefly: purified protein. The settings on record: FAD; pH 7.0; 25.0 °C.
Data set [4] has as its system COC1=C(OC)C(=O)C(CC=C(C)C)=C(C)C1=O. Put plainly: purified protein. Conditions: FAD; pH 7.0; 25.0 °C.
The subject of data set [5] is CC(C)=CCC/C(C)=C/CC1=C(C)C(=O)c2ccccc2C1=O. Put plainly: purified protein. The settings on record: FAD; pH 7.0; 25.0 °C.

T1 sequence (O50444 1-329): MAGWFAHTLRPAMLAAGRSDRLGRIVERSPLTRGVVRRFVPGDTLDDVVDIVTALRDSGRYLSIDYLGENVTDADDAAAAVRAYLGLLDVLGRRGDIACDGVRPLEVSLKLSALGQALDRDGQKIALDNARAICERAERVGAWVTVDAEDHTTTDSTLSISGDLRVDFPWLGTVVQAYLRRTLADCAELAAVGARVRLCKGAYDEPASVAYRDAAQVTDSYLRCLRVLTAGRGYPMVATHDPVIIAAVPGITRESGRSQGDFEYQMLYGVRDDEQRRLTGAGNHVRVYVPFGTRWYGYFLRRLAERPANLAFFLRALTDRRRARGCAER

Turning to `Cc1cc2nc3c(=O)[nH]c(=O)nc-3n(C[C@H](O)[C@H](O)[C@H](O)COP(=O)(O)OP(=O)(O)OC[C@H]3O[C@@H](n4cnc5c(N)ncnc54)[C@H](O)[C@@H]3O)c2cc1C` [FAD], the “co-purification with the enzyme (yellow protein); added FAD makes little differen” value in data set [1] is given as “the addition of FAD to the assay buffer resulted in little difference in activity, confirming the copurification”.

By Km is commonly meant the concentration of substrate that gives half-maximal velocity. A word on the kcat: it is the maximal rate divided by the concentration of active sites. One may read the kcat/Km as the second-order rate constant that governs catalysis at low substrate concentration. Turning to “proline dehydrogenase (PruB) (Mycobacterium tuberculosis H37Rv)”, the Km with O=C(O)[C@@H]1CCCN1 came out at 2.5 ± 0.3 mM; in data set [2], 46 ± 13 µM; in data set [3], 23 ± 3.2 µM; in data set [4] it was 9.7 ± 1.4 µM; in data set [5], 12 ± 0.66 µM. Further, the kcat came to 1.7 s⁻¹ in the data set on O=C(O)[C@@H]1CCCN1 and 2.3 s⁻¹ in data set [4]. Besides, the kcat/Km with O=C(O)[C@@H]1CCCN1 stood at 690 M⁻¹ s⁻¹; in data set [4] it was 230000 M⁻¹ s⁻¹.
